These results are taken from the supplement of paper PMC12764529.

± gives the half width of the 95% confidence interval.

A short description of data set [1]: folding stability dG unfold from chymotrypsin proteolysis; higher = more stable. Summed up: (§1)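 Sequencing followed digestion of designed mini-proteins with trypsin and chymotrypsin, each at 11 concentrations in threefold dilutions together with a no-protease condition. The mini-proteins were under 80 residues, had no cysteine, sat in a PA-tagged cDNA display construct, and were kept only if AlphaFold2 dimer inter-PAE was above 15. From the counts, Bayesian fitting gave K50, and unfolding free energy was derived against a sequence-predicted unfolded-state K50 and a shared folded-state K50, per protease or combined.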

A short description of data set [2]: folding stability dG unfold from trypsin proteolysis; higher = more stable. Summed up: as §1
Data set [3] is described as follows: folding stability dG unfold (combined trypsin and chymotrypsin); higher = more stable. Summed up: as §1

Turning to “SAGGGRPILFRPPDGSVEVVPVPADATLEEVKEVAEAAAAARGYTELSFDPATETVTIDLGGDRVEAASAGG [r13_572_JUSTAS]”, the figures for the “folding stability dG unfold” value in data set [1], in data set [2] and in data set [3] were 0.824 ± 0.024 kcal/mol, -1.46 ± 0.47 kcal/mol and 0.426 ± 0.049 kcal/mol, respectively.
With “SAGGGSATLVGIFPEKGYLVVLTITTDGDDFSIGELKVTFEPLDDDSVKATFYTPSGQKHDAIGLPVASAGG [r13_515_TrMRF]”, the “folding stability dG unfold” value in data set [1] stood at 1.42 ± 0.1 kcal/mol; in data set [2], 1.54 ± 0.053 kcal/mol; in data set [3] it was 1.46 ± 0.059 kcal/mol.
For “SAGGGSLEKIREAGKKGYLVRIELETGERRVIPIEDLIRDPRFGPDVPLAELRVRRIELLPPDDGLPLSAGG [r13_587_TrMRF]” the same measures were 0.889 ± 0.069 kcal/mol, 1.27 ± 0.036 kcal/mol and 1.13 ± 0.062 kcal/mol.
For “SAGGGSMAASSVTSEEKPLPDGSSLSIPEITRPDNVATLTVEYYDPKTGTKYTFTLTIPISPDDTVTLSAGG [r13_190_JUSTAS]” the same measures were 1.97 ± 0.06 kcal/mol, 1.79 ± 0.086 kcal/mol and 1.99 ± 0.15 kcal/mol.
For “SAGGGSMIKKTLEEEPVGESTVSKSTVTLPDGTPVSVTSTTTKVGNTWTTTTTTNYGSSTTTTTTTTSAGGS [r16_476_JUSTAS]” the same measures were 0.419 ± 0.11 kcal/mol, -0.638 ± 0.21 kcal/mol and 0.156 ± 0.15 kcal/mol.
With “SAGGGSMTTVRLTREINLPSSVSDEEIIEEIKEELPENYEILEVKIEKDPKTGKYYIEAEVKIPKLGSAGGS [r16_396_JUSTAS]”, the “folding stability dG unfold” value amounted to 2.269 ± 0.02 kcal/mol in data set [1], 0.904 ± 0.027 kcal/mol in data set [2] and 1.88 ± 0.056 kcal/mol in data set [3].
For “SAGGGSSSLPAVPVSVETFTFPYKTEEEAKAAAEELAKKLEAEDGKPVKVEVSFDPATGTATVTITVVSAGG [r13_517_JUSTAS]” the same measures were 3.791 ± 0.036 kcal/mol, 4.2 ± 0.16 kcal/mol and 3.815 ± 0.035 kcal/mol.
With “SAGGGSSSTTLTLREVTEVIVIPVPPEEEELAEELAKKYESQGIKVELERLPDGTWKLTLTYYRGVSLSAGG [r13_702_JUSTAS]”, the “folding stability dG unfold” value was determined as 0.827 ± 0.15 kcal/mol in data set [1], 1.15 ± 0.11 kcal/mol in data set [2] and 1.03 ± 0.081 kcal/mol in data set [3].
For “SAGGGSSVLSETVSVDPNNVTTTTTTYKAGDTTSTTTTTTTTTPPVPNLPLPPPPPVSPEAIALGLLLSAGG [r13_760_JUSTAS]” the same measures were -0.0352 ± 0.18 kcal/mol, 0.648 ± 0.052 kcal/mol and 0.481 ± 0.059 kcal/mol.
For “SAGGGSSYTLLSESTSTDPATGATLTTTTYRAPDGTIYYDSTLTAPDGTTTGTATAVDPDGTPVTIALSAGG [r13_573_JUSTAS]” the same measures were 1.39 ± 0.12 kcal/mol, 1.32 ± 0.035 kcal/mol and 1.41 ± 0.1 kcal/mol.
For “SAGGGSTSTSTSTSTDPATGATTTTTTTTVPTPDGSGTVTTTTTTVPGAAPDTDTAPVTTTTTTTPTPSAGG [r13_715_JUSTAS]” the same measures were 2.14 ± 0.086 kcal/mol, 2.49 ± 0.1 kcal/mol and 2.32 ± 0.21 kcal/mol.
In the case of “SAGGGSTVTTTTPDGTSVSTTTLPDGTVTATATYPDSTVSTTYDPATNTTTVTTTSGGTTVATTTVAASAGG [r13_748_JUSTAS]”, the “folding stability dG unfold” value in data set [1] is 1.39 ± 0.031 kcal/mol; in data set [2], 2.48 ± 0.11 kcal/mol; in data set [3] it was 1.89 ± 0.065 kcal/mol.
For “SAGGGSVSITLELEEEEEIEEIVNEKGIPEPLEKRIKKKVTITISPPPTLSSSSSVTGLAEKAIEEKSAGGS [r16_359_JUSTAS]” the same measures were 0.511 ± 0.069 kcal/mol, -0.425 ± 0.22 kcal/mol and 0.101 ± 0.31 kcal/mol.
For “SAGGGSVSVTPVKEIPGPGTTTLYRETHPDDRTVLITYNPATGTVTVTTYKGNTKTSTTTYNTPESLSAGGS [r16_457_JUSTAS]” the same measures were 1.53 ± 0.13 kcal/mol, 1.05 ± 0.035 kcal/mol and 1.42 ± 0.098 kcal/mol.
For “SAGGGSYTIVVELGDKKVVFEIDKEEAVEEAVAKLPELGLEVEVLKKEKVLNEDGKPSVLVEVKVKPSAGGS [r8_336_TrMRF]” the same measures were 1.12 ± 0.059 kcal/mol, -0.663 ± 0.17 kcal/mol and 0.631 ± 0.1 kcal/mol.
For the sequence “SAGGGTYIEIKVTYSDGTTETFTVPAKPEDIETVVKEIEDKLKELGGTITSIKIENGKITIEATIPDSAGGS [r16_662_TrMRF]”, the “folding stability dG unfold” value turned out to be 3.3 ± 0.087 kcal/mol in data set [1], 2.41 ± 0.19 kcal/mol in data set [2] and 3.06 ± 0.18 kcal/mol in data set [3].
Consider “SAGGHHMTIETFEEPDKLTVVVDGDDPEATREYLLQKVKEESSRKPVKVTFTEDPNGKLTITFDLKEESAGG [r13_158_JUSTAS]”, for which the “folding stability dG unfold” value in data set [1] is -0.186 ± 0.34 kcal/mol; in data set [2] it was -0.568 ± 0.26 kcal/mol; in data set [3] it was -0.17 ± 0.34 kcal/mol.
For “SAGGHTIMFPVKSPEQARDEIRDFARDQGLPIEPEDITIEQHEFKDPENGKKYRFFEITIDVTLKPPSAGGS [r16_587_TrROS]” the same measures were 1.49 ± 0.11 kcal/mol, 0.0514 ± 0.056 kcal/mol and 1.02 ± 0.15 kcal/mol.
As to “SAGGIEEAIKEGKTVIIRVKVIDKETGKEYERTIEVPANEEISLEELLKALLPPGYEVEIEVVELEPSAGGS [r8_127_TrROS_Hall]”, the “folding stability dG unfold” value was determined as 3.03 ± 0.51 kcal/mol in data set [1], 3.78 ± 0.33 kcal/mol in data set [2] and 3.65 ± 0.4 kcal/mol in data set [3].
For “SAGGIEIPVNPHPSEDGQPYVMFTLEIEPKDDNGKKQERPIPFMFDSPDDAEEFASEAAPDGYKIRISAGGS [r16_652_TrROS]” the same measures were 0.196 ± 0.11 kcal/mol, -0.86 ± 0.48 kcal/mol and -0.0602 ± 0.15 kcal/mol.
For “SAGGIIPIENASWDELLNALKEAAEKGDPNVTITFQDPGRPYWIQIDPDENNIEVEHPNGETWRFKISAGGS [r16_481_TrROS]” the same measures were 0.995 ± 0.14 kcal/mol, 0.749 ± 0.089 kcal/mol and 0.905 ± 0.18 kcal/mol.
In the case of “SAGGIKEVKFDPKTNTLTVYLPEVGATITYNPTAGKLEIYSKDGKPKTIDVPTPSEMKKAILKAYKELKSAG [r5_467_TrMRF]”, the “folding stability dG unfold” value in data set [1] is 2.84 ± 0.069 kcal/mol; in data set [2], 1.82 ± 0.064 kcal/mol; in data set [3], 2.69 ± 0.21 kcal/mol.
As to “SAGGIKIERDPNMWKFEIPLPNKPLTIHISQSDGRYTIAIYENGKPIRTVPFPGPVDDAIERALKKLSAGGS [r8_276_TrROS]”, the “folding stability dG unfold” value in data set [1] amounted to 2.05 ± 0.032 kcal/mol; in data set [2], 1.66 ± 0.034 kcal/mol; in data set [3] it was 1.93 ± 0.054 kcal/mol.
For “SAGGIKIMIPPGMPEEEARELARMIASMLPDNGHNIDDVKVRPVKPMPPPDGEPHRMYEFEIKLEPPSAGGS [r16_266_TrROS]”, the “folding stability dG unfold” value turned out to be 0.35 ± 0.1 kcal/mol in data set [1], 1.01 ± 0.035 kcal/mol in data set [2] and 0.738 ± 0.11 kcal/mol in data set [3].
For “SAGGIKIQDPDDGEWIEFPLPIRNPGDGKPYPFKVEIPVRRDPENGRPYFYIEIEFPGNGRKMTFPLRSAGG [r13_262_TrROS]” the same measures were 1.12 ± 0.058 kcal/mol, 0.518 ± 0.06 kcal/mol and 0.918 ± 0.057 kcal/mol.
For “SAGGIKPDEPAIVLVKIPLPPGPNPEGGLEGPVLKTFPLEVGFPSLEELIEAVKELFPEGTEVEIIPSAGGS [r16_282_TrMRF]” the same measures were -0.431 ± 0.13 kcal/mol, 1.06 ± 0.042 kcal/mol and 0.455 ± 0.1 kcal/mol.
For “SAGGIRIDDEGMIQIYFPGWRHTIPIKPNLEITEITIPDDGYIKITFRIPGKTVKHEFPMLPPGQEISAGGS [r16_635_TrROS]” the same measures were 1.32 ± 0.1 kcal/mol, 2.35 ± 0.082 kcal/mol and 1.82 ± 0.27 kcal/mol.
For the sequence “SAGGIRIKPGQILVIDIERPTGNERKIIIPMDDPEEVIEQLGFPPENFRIKDIEVVPMPPEQAKDFLESAGG [r13_850_TrROS]”, the “folding stability dG unfold” value in data set [1] is 0.585 ± 0.1 kcal/mol; in data set [2], -0.0896 ± 0.28 kcal/mol; in data set [3] it was 0.321 ± 0.17 kcal/mol.
For “SAGGITIRGMPWEWAEEIAKTLAQEGYRLKDVEVEEDPPDGYYSVTVQQRDPETGKPKKPVTISIPPSAGGS [r16_750_TrROS]” the same measures were 0.0769 ± 0.44 kcal/mol, 0.594 ± 0.13 kcal/mol and 0.515 ± 0.43 kcal/mol.
As for “SAGGITIVWQPGYFRIEFPGNGNTVPIPIPPDDPGRTLEEFADEFIDEMSERFGIPPPEDIKIEYYDSAGGS [r8_402_TrROS]”, the “folding stability dG unfold” value is 1.36 ± 0.084 kcal/mol in data set [1], 1.31 ± 0.13 kcal/mol in data set [2] and 1.39 ± 0.15 kcal/mol in data set [3].
For “SAGGIVEEAIKKLFESGIPLSEEEIKEIIEKAIKEENEKKGKKIEKIEIGEIKFNPETGYAPIKIKASAGGS [r16_365_TrMRF]” the same measures were 1.44 ± 0.13 kcal/mol, -0.383 ± 0.48 kcal/mol and 0.856 ± 0.83 kcal/mol.
For “SAGGIVPLPNGHWVIMAQFEVDEGQTVDDAPEFAREIAKTFGIKPTQVQVDPEKGYVNVAIKIPPGALSAGG [r13_178_TrROS]” the same measures were 0.263 ± 0.35 kcal/mol, 0.217 ± 0.11 kcal/mol and 0.327 ± 0.25 kcal/mol.
For “SAGGIVVGEEGVVRITGPGEPVIIPLPENSEVVEIDVPDDGYVRITLRVDGKTVTVDFPSAPPGLTLSAGGS [r16_635_TrMRF]” the same measures were 0.355 ± 0.041 kcal/mol, 1.34 ± 0.038 kcal/mol and 0.927 ± 0.051 kcal/mol.
For the sequence “SAGGIVVKVADGSYVRIVVYDPNNPVPRIETFPGGGVDDVIAAIAASPSFPNTVVYVERFDDGKPYPASAGG [r13_914_TrMRF]”, the figures for the “folding stability dG unfold” value in data set [1], in data set [2] and in data set [3] were 0.664 ± 0.055 kcal/mol, 0.871 ± 0.043 kcal/mol and 0.747 ± 0.075 kcal/mol, respectively.
For “SAGGKEIEELAKKLAEELGVEVVKVEVEKVGPDTVKVTVTLKDGKKIKIEIKKKKDGSYEIKVEIEPSAGGS [r8_284_TrROS_Hall]” the same measures were 2.63 ± 0.22 kcal/mol, 3.08 ± 0.19 kcal/mol and 2.97 ± 0.3 kcal/mol.
For “SAGGKEIKIEVELDEDGNLTVTITLPDGRVVRITFTPGKITVEVFDAETGELVEEKTLTADELLELLSAGGS [r8_476_TrROS_Hall]” the same measures were 3.81 ± 0.13 kcal/mol, 3.46 ± 0.16 kcal/mol and 3.67 ± 0.13 kcal/mol.
